In test [1] the target is TAGT-8 (human). Briefly: BLI (Octet), antigen-Fc on AHC sensor. For orientation: BLI is a label-free optical method that tracks binding on a fibre tip over time.
In test [2] the target is TAGT-8M (mouse). Put plainly: BLI (Octet), antigen-Fc on AHC sensor.
The target of test [3] is TAGT-8 (human). Put plainly: BLI (Octet RED96), antigen Fc-His on AHC sensor, Fab in solution.
Test [4] has as its target TAGT-8M (mouse). The test is described as above.
For test [5], the target named is TAGT-8H (human). Put plainly: BLI (Octet RED96), antigen-Fc on AHC sensor, Fab in solution.
The target of test [6] is TAGT-8M (mouse). Described as above.
Test [7] concerns the target TAGT-8H (human). Briefly: BLI (Octet), antigen-Fc captured, Fab in solution.
The target of test [8] is TAGT-8 (human). Briefly: BLI Octet, antigen-Fc on AHC sensor, Fab analyte.
Test [9] concerns the target TAGT-8H (human). Put plainly: BLI Octet RED96, antigen-Fc on AHC sensor, Fab analyte.
Test [10] addresses TAGT-8 (human). Briefly: BLI, Octet RED96, antigen-Fc on AHC sensor, Fab in solution.
For test [11], the target named is TAGT-12 (human). Briefly: BLI Octet RED96, antigen-Fc on AHC sensor, Fab analyte.
Test [12] concerns the target TAGT-12 (human). Put plainly: BLI (Octet RED96), antigen Fc-His on AHC sensor, Fab in solution.
Test [13] has as its target TAGT-12 (human). Put plainly: BLI, Octet RED96, antigen-Fc on AHC sensor, Fab in solution.
In test [14] the target is TAGT-6 (human). Briefly: BLI Octet RED96, antigen-Fc on AHC sensor, Fab analyte.
In test [15] the target is TAGT-6 (human). Briefly: BLI (Octet), antigen-Fc on AHC sensor.
Test [16] has as its target TAGT-6 (human). Put plainly: BLI (Octet RED96), antigen-Fc on AHC sensor, Fab in solution.
Test [17] has as its target TAGT-6 (human). Put plainly: BLI Octet, antigen-Fc on AHC sensor, Fab analyte.
In test [18] the target is TAGT-6 (human). Put plainly: BLI (Octet RED96), antigen Fc-His on AHC sensor, Fab in solution.
Test [19] has as its target TAGT-12 (human). Put plainly: BLI (Octet), antigen-Fc on AHC sensor.
The target of test [20] is TAGT-12 (human). Put plainly: BLI (Octet RED96), antigen-Fc on AHC sensor, Fab in solution.

The term Kd denotes the equilibrium constant for the complex coming apart.

B1: Hit ID 4027 (Fab, V domains shown)
VH: EVQLVESGGGLVQPGGSLRLSCAASGYSITSGHHWNWIRQAPGKGLEWIGWISPSSGGTKYAQKFQGRVTISRDNSKNTLYLQLNSLRAEDTAVYYCARGFDGFHYWGQGTLVTVSS
VL: DIQLTQSPSSLSASVGDRVTITCRASESVDFYGISFLPWYQQKPGKAPKLLIYDASNRATGIPSRFSGSGSGTDFTLTISSLQPEDFATYYCQQSYSWPWTFGQGTKVEIKR
As for B1, the Kd in the test with TAGT-8 (human) [1] is 1.55 nM; with TAGT-8M (mouse) [2], 3.81 nM; with TAGT-8 (human) [3], 1.55 nM; with TAGT-8M (mouse) [4], 3.81 nM; with TAGT-8H (human) [5], 1.55 nM; with TAGT-8M (mouse) [6] it was 3.81 nM.

B2: Hit ID 4034 (Fab, V domains shown)
VH: EVQLVESGGGLVQPGGSLRLSCAASGYSISSGHYWNWIRQAPGKGLEWVSSISGYGSTTYYADSVKGRFTISRDNSKNTLYLQLNSLRAEDTAVYYCARERYYGSTDYAFDYWGQGTLVTVSS
VL: DIQLTQSPSSLSASVGDRVTITCSASSRVSHVFWYQQKPGKAPKLLIYAASTLQSGVPSRFSGSGSGTDFTLTISSLQPEDFATYFCLQGTHFPWTFGQGTKVEIKR
With B2, the Kd with TAGT-8H (human) [7], with TAGT-8 (human) [8] and in the test with TAGT-8 (human) [3] was 4.27 nM in each case.

B3: Hit ID 4036 (Fab, V domains shown)
VH: EVQLVESGGGLVQPGGSLRLSCAASGFSLSTSGVGVGWIRQAPGKGLEWIGEIYHSGSTYYSPSLKSRVTISRDNSKNTLYLQLNSLRAEDTAVYYCARERYGSYYFDYWGQGTLVTVSS
VL: DIQLTQSPSSLSASVGDRVTITCRASQSVDFYGKSFLDWYQQKPGKAPKLLIYDASSLESGVPSRFSGSGSGTDFTLTISSLQPEDFATYYCQQYYRIPPTFGQGTKVEIKR
B3: the Kd with TAGT-8H (human) [9], in the test with TAGT-8 (human) [1] and with TAGT-8 (human) [10] was 3.13 nM throughout.

B4: Hit ID 6010 (Fab, V domains shown)
VH: EVQLVESGGGLVQPGGSLRLSCAASGYSISSGHYWNWIRQAPGKGLEWIGWINPNRGDTNYAQKFQGRVTISRDNSKNTLYLQLNSLRAEDTAVYYCARDYYGDFDYWGQGTLVTVSS
VL: DIQLTQSPSSLSASVGDRVTITCRASQSISSYLNWYQQKPGKAPKLLIYDASNLETGVPSRFSGSGSGTDFTLTISSLQPEDFATYYCQHHYGTPLTFGQGTKVEIKR
Regarding B4, the Kd in the test with TAGT-12 (human) [11], with TAGT-12 (human) [12] and with TAGT-12 (human) [13] was 28.3 nM in each case.

B5: Hit ID 7097 (Fab, V domains shown)
VH: EVQLVESGGGLVQPGGSLRLSCAASGYSISSGHHWDWIRQAPGKGLEWVSYISGAGDTTYYADSVKGRFTISRDNSKNTLYLQLNSLRAEDTAVYYCAREGSDAVLGDWFAYWGQGTLVTVSS
VL: DIQLTQSPSSLSASVGDRVTITCRASQGISSYLAWYQQKPGKAPKLLIYDASNLETGVPSRFSGSGSGTDFTLTISSLQPEDFATYYCQQYYSTPLTFGQGTKVEIKR
Regarding B5, the dissociation constant (Kd) with TAGT-6 (human) [14], in the test with TAGT-6 (human) [15] and with TAGT-6 (human) [16] was 24.3 nM each time.

B6: Hit ID 7183 (Fab, V domains shown)
VH: EVQLVESGGGLVQPGGSLRLSCAASGYSISSGHYWNWIRQAPGKGLEWVSSISGYGDTTYYADSVKGRFTISRDNSKNTLYLQLNSLRAEDTAVYYCAREGSDTVLGDWFAYWGQGTLVTVSS
VL: DIQLTQSPSSLSASVGDRVTITCRASQSISSYLNWYQQKPGKAPKLLIYDASNRATGIPSRFSGSGSGTDFTLTISSLQPEDFATYYCQQSYSTPPTFGQGTKVEIKR
Regarding B6, the Kd with TAGT-6 (human) [17], in the test with TAGT-6 (human) [18] and in the test with TAGT-6 (human) [16] was 14.8 nM throughout.

B7: Hit ID 5115 (Fab, V domains shown)
VH: EVQLVESGGGLVQPGGSLRLSCAASGYSISSGHYWGWIRQAPGKGLEWIGEIYHSGSTYYSPSLKSRVTISRDNSKNTLYLQLNSLRAEDTAVYYCARESYYAFDYWGQGTLVTVSS
VL: DIQLTQSPSSLSASVGDRVTITCRASQSVSSYLAWYQQKPGKAPKLLIYAASTLQSGVPSRFSGSGSGTDFTLTISSLQPEDFATYYCQQYYTTPLTFGQGTKVEIKR
B7: the Kd with TAGT-12 (human) [19] and with TAGT-12 (human) [20] was 11.6 nM throughout.

B8: Hit ID 7040 (Fab, V domains shown)
VH: EVQLVESGGGLVQPGGSLRLSCAASGYSISSGYYWNWIRQAPGKGLEWIGWISPSGGSTNYAQKFQGRVTISRDNSKNTLYLQLNSLRAEDTAVYYCARDLTAGGFDYWGQGTLVTVSS
VL: DIQLTQSPSSLSASVGDRVTITCRASQGISSYLAWYQQKPGKAPKLLIYDASNLETGVPSRFSGSGSGTDFTLTISSLQPEDFATYYCQQYYSTPLTFGQGTKVEIKR
For B8, the Kd in the test with TAGT-8H (human) [9], with TAGT-8 (human) [8] and with TAGT-8H (human) [5] was 27.2 nM in each case.

B9: Hit ID 5404 (Fab, V domains shown)
VH: EVQLVESGGGLVQPGGSLRLSCAASGYSISSGYHWAWIRQAPGKGLEWIGEIYHSGSTYYSPSLKSRVTISRDNSKNTLYLQLNSLRAEDTAVYYCARSPYYYGVFDYWGQGTLVTVSS
VL: DIQLTQSPSSLSASVGDRVTITCSASSRVGSVYWYQQKPGKAPKLLIYDASNLETGVPSRFSGSGSGTDFTLTISSLQPEDFATYYCQQYTHDPVTFGQGTKVEIKR
Take B9: the Kd with TAGT-6 (human) [14], with TAGT-6 (human) [15] and with TAGT-6 (human) [16] was 3.3 nM throughout.

The values above are taken from US20200248336A1.
